Molecular target: T1, AXL receptor tyrosine kinase (Homo sapiens, UniProt P30530 26-894, O-linked glycan (site not stated) reported as the TAG_TNB1 epitope)
T1 sequence (looked up): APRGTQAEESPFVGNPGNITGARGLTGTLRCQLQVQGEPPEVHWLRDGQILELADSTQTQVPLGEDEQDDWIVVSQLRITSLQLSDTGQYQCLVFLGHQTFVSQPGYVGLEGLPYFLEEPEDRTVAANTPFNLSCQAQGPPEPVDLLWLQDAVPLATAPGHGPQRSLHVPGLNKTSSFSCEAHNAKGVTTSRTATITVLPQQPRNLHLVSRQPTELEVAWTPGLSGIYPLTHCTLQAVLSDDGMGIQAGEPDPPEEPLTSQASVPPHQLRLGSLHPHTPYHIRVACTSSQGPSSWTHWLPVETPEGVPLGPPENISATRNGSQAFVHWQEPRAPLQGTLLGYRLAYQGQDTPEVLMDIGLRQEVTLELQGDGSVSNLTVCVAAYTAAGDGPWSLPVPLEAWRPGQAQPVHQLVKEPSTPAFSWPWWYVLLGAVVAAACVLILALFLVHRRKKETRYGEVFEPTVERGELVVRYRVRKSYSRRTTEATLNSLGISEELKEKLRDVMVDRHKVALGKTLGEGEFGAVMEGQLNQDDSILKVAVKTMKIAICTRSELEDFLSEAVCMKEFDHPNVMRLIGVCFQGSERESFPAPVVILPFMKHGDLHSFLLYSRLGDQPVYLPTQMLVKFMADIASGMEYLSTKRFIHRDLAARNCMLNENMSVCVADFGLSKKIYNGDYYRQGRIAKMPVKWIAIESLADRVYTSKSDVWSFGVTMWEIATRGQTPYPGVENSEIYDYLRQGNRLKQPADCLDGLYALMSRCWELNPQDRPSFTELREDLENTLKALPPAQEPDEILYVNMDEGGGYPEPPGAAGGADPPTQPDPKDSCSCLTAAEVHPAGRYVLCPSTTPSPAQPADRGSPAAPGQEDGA
Assay: cell-based or functional assay

B1: ch_TAG_TNB1-saporin (antibody, V domains shown)
VH: QVKLQESGAELVKPGASVKLSCKASGFTFTSYYMYWVKQRPGQGLEWIGGVSPSNGGANFNEKFKTKATLTVDKSSSTAYMQLSSLTSEDSAVYYCTRFLYGPRYFDVWGQGTTVTVSS
VL: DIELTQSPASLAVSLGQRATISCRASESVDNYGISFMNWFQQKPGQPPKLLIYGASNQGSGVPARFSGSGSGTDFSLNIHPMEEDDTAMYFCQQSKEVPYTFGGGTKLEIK
modifications: Saporin toxin directly conjugated to the antibody; site and chain not stated
IC50, Cell Titre Glo cell viability, BT549 cells: 1.24 nM
IC50, Cell Titre Glo cell viability, H1299 cells: 0.0353 nM
IC50, Cell Titre Glo cell viability, Hs578T cells: 0.529 nM
IC50, Cell Titre Glo cell viability, MDA-MB-231 cells: 0.34 nM

From patent publication US20200317812A1 (AGENCY FOR SCIENCE TECHNOLOGY AND RESEARCH, published 2020)
